{
  "source": "patent US20210139605A1",
  "about": "(AGENCY FOR SCIENCE TECHNOLOGY AND RESEARCH, published 2021)",
  "binders": {"B1": {"name": "PFF3 Fab (Fab, V domains shown)", "VH": "QVQLVQSGGGLVQPGGSLRLSCSASGFTFSSYAIHWVRQAPGKGLEYVSAISSNGGSTYYADSVKGRFTISRDNSKNTLYLQMNSLRAEDTAVYYCARVYGYGLHYYGMDVWGQGTTVTVSS", "VL": "not shown", "notes": "Printed entries run through CL and CH1 (Fab chains); Label F3 tied to PFF3 by inference"}, "B2": {"name": "PFG4 Fab (Fab, V domains shown)", "VH": "QVQLQQSGAEVKKPGSSVKVSCKASGGTFSSYAISWVRQAPGQGLEWMGGIIPIFGTANYAQKFQGRVTITADKSTSTAYMELSSLRSEDTAVYYCARGADWNSDYWGQGTLVTVSS", "VL": "QSVLTQPPSVSKALRQTATLTCTGNNNNVGFAGAAWFLQHQGHPPKLLAYRNNDRPSGISERFSASRSGNTASLTITGLQPEDEADYYCSAWDSSLKVQVFGGGTKLTVLG", "notes": "Printed entries run through CL and CH1 (Fab chains); Label G4 tied to PFG4 by inference"}, "B3": {"name": "PFA1 Fab (Fab, V domains shown)", "VH": "EVQLVQSGGGVVQPGRSLRLSCAASGFTFSSYGMHWVRQAPGKGLEWVAVISYDGSNKYYADSVKGRFTISRDNSKNTLFLQMNSLRAEDTAVYYCARDLFAVVGYYYYYGMDVWGQGTTVTVSS", "VL": "EIVLTQSPFSLPVTPGEPASISCRSSQSLLHSNGFNYLDWYLQKPGQSPQLLIYLGSNRASGVPDRFSGSGSGTDFTLKISRVEAEDVGVYYCMQGLQTPYTFGQGTKLEIKR", "notes": "Entries are labelled light/heavy chain VD but as printed run through CL and CH1 (Fab chains); Label A1 tied to PFA1 by inference"}, "B4": {"name": "PFD4 Fab (Fab, V domains shown)", "VH": "QVQLVQSGGGLVQPGGSLRLSCSASGFTFSSYAMHWVRQAPGKGLEYVSAISSNGGSTYYADSVKGRFTISRDNSKNTLYLQMSSLRAEDTAVYYCARSRGYYGMDVWGQGTTVTVSS", "VL": "not shown", "notes": "Printed entries run through CL and CH1 (Fab chains); Label D4 tied to PFD4 by inference"}, "B5": {"name": "clone A3 Fab (P1A3, from the phage display Fab library) (Fab, V domains shown)", "VH": "EVQLVQSGTEVKKPGASVRVSCKSSGYTFTSYYIHWVRQAPGQGLEWMAIINPGNGDTNYAQRFQGRVTMTRDTSTSTVYMELRSLRSDDTAVYFCAREIASYSGSYYDYWGQGTLVTVSS", "VL": "QAVVTQEPSLSVSPGGTVTLTCGLSSGSVSTGHYASWYQQTPGQAPRTLFYNTNTRSSGVPDRFSGSIVGNKAALTITGAQADDESDYYCVLYVGDGIWVFGGGTKLTVLG"}, "B6": {"name": "PFA2 Fab (Fab, V domains shown)", "VH": "QVQLQQSGPGLVKPSQTLSLTCAISGESVSSAAAAWNWIRQSPSRGLEWLGRTYYRSKWYSEYAVSVKSRITINGDTSKNQVSLHLNAVTPEDTAIYYCVRGSIFDVWGQGTMVTVSS", "VL": "EIVLTQSPLSLPVTPGEPASISCRSSQSLLHSDGNKYLDWYLQKPGQSPQLLIYLGSNRASGVPERFSGSGSGTDFTLKISRVEAEDVGVYYCMLGTHWPPMYIFGQGTKLEIKR", "notes": "Printed entries run through CL and CH1 (Fab chains); Label A2 tied to PFA2 by inference"}, "B7": {"name": "PFD2 Fab (Fab, V domains shown)", "VH": "QVQLQQWGAGLLKPSETLSLTCAVYGGSFSGYYWSWIRQPPGKGLEWIGEINHSGSTNYNPSLKSRVTISVDTSKNQFSLKLSSVTAADTAVYYCARGLPYYYFDYWGQGTLVTVSS", "VL": "QSVVTQPPSVSGAPGQRVTISCTGRSANIGGFDVQWYRQLPGTAPQLLIYDNSNRPSGVPDRFSGSKSGTSATLAISGLQTGDEADYYCGTWDSYLNIWVFGGGTKLTVLS", "notes": "Printed entries run through CL and CH1 (Fab chains); Label D2 tied to PFD2 by inference"}, "B8": {"name": "PFF2 Fab (Fab, V domains shown)", "VH": "QMQLVQSGGGVVQPGRSLRLSCAASGFSFKNYGMHWVRQAPGKGLEWVAFISYDGTNKYYADSVKGRFTISRDNSKNTLYLQMNSLRAEDTAVYYCAKHYGDYYYYYGMDVWGQGTTVTVSS", "VL": "not shown", "notes": "Printed entries run through CL and CH1 (Fab chains); Label F2 tied to PFF2 by inference"}, "B9": {"name": "PFG1 Fab (Fab, V domains shown)", "VH": "EVQLVQSGGGVVQPGRSLRLSCAASGFTFSSYGMHWVRQAPGKGLEWVAVIWYDGSNKYYADSVKGRFTISRDNSKNTLYLQMNSLRAEDTAVYYCATMTTEDYWGQGTLVTVSS", "VL": "QAVLTQPSSLSASPGASASLTCTLRSGINVGTYRIYWYQQKPGSPPQYLLRYKSDSDKQQGSGVPSRFSGSKDASANAGILLISGLQSEDEADYYCMIWHSSAWVFGGGTKLTVLG", "notes": "Printed entries run through CL and CH1 (Fab chains); Label G1 tied to PFG1 by inference"}, "B10": {"name": "PFE2 Fab (Fab, V domains shown)", "VH": "EVQLVQSGGGVVQPGRSLRLSCAASGFTFSSYAMHWVRQAPGKGLEWVAVISYDESNKYYADSVKGRFTISRDNSKNTLYLQMNSLRAEDTAVYYCAREPSGSWSYLYYYYYGMDVWGQGTTVTVSS", "VL": "DVVMTQSPLSLPVTPGEPASISCRSSQSLLRSDGYNFVDWYLQKAGQSPQLLIHLGSDRASGVPDRFSGSGSGTDFTLRISRVEAEDVGVYYCMQALQTPRTFGQGTKVEIKR", "notes": "Printed entries run through CL and CH1 (Fab chains); Label E2 tied to PFE2 by inference"}, "B11": {"name": "PFG2 Fab (Fab, V domains shown)", "VH": "EVQLVQSGGGLVQPGGSLRLSCAASGFTFSSYAMSWVRQAPGKGLEWVSSISSSSSYIYYADSVKGRFTISRDNAKNSLYLQMNSLRAEDTAVYYCARDGSAWSRPYWGQGTLVTVSS", "VL": "EIVLTQSPATLSLSPGERATLSCRASQSVSSYLAWYQQKPGQAPRLLIYDASNRATGIPARFSGSGSGTDFTLTISSLEPEDFAVYYCQQRSNWPLTFGGGTKVEIKR", "notes": "Printed entries run through CL and CH1 (Fab chains); Label G2 tied to PFG2 by inference"}, "B12": {"name": "clone C5 Fab (P1C5, from the phage display Fab library) (Fab, V domains shown)", "VH": "QVQLQESGPGLVKPSETLSLTCTVSGGSISSSSYYWGWIRQPPGKGLEWIGSIYYSGSTYYNPSLKSRVTISVDTSKNQFSLKLSSVTAADTAVYYCARYAPDSSGYLVAFDIWGQGTMVTVSS", "VL": "QTVVTQEPSFSVSPGGTVTLTCGLSSGSVSTGYYPSWYQQTPGQAPRTLIYSTNSRSSGVPDRFSGSILGNKAALTITGAQADDESDYYCVLYMGSGISVFGGGTKLTVLG"}, "B13": {"name": "clone F1 Fab (P1F1, from the phage display Fab library) (Fab, V domains shown)", "VH": "QVQLVESGPGLVKPSGTLSLTCAVSGGSISSSNWWSWVRQPPGKGLEWIGEIYHSGSTNYNPSLKSRVTISVDTSKNQFSLKLSSVTAADTAVYYCARMGANSGGYLYGMDVWGQGTTVTVSS", "VL": "B12 VL with G32S, S55T, S99W"}, "B14": {"name": "PFD3 Fab (Fab, V domains shown)", "VH": "EVQLVQSGAEVKKPGESLKISCKGSGYSFTSYWIGWVRQMPGKGLEWMGIIYPGDSDTRYSPSFQGQVTISADKSISTAYLQWSSLKASDTAMYYCARLGYGVPLPEYFDLWGRGTLVTVSS", "VL": "B12 VL with T2A, T5I, G23A, S25T, G32S, A45P, S55L, V91E, L107V", "notes": "Printed entries run through CL and CH1 (Fab chains); Label D3 tied to PFD3 by inference"}, "B15": {"name": "clone E4 Fab (P1E4, from the phage display Fab library) (Fab, V domains shown)", "VH": "QVQLQQWGAGLLKPSETLSLTCAVYGGSFSGYYWSWIRQPPGKGLEWIGEINHSGSTNYNPSLKSRVTISVDTSKNQFSLKLSSVTTADTAVYYCARMGINSGGYLYGMDVWGQGTTVTVSS", "VL": "B12 VL with G32S, T41I, S52T, S55I, S65G, D83E, V91M, S99W"}, "B16": {"name": "PFD1 Fab (Fab, V domains shown)", "VH": "EVQLVQSGGGVVQPGRSLRLSCAASGFTFSSYGMHWVRQAPGKGLEWVAVISYDGSNKYYADSVKGRFTISRDNAKNSLYLQMNSLRAEDTAVYYCARSRGYSGYDNWGQGTLVTVSS", "VL": "not shown", "notes": "Printed entries run through CL and CH1 (Fab chains); Label D1 tied to PFD1 by inference"}, "B17": {"name": "PFE5 Fab (Fab, V domains shown)", "VH": "B16 VH with G33A, A75S, S78T, S103Y, Y105M, N107V, L113T", "VL": "DIQMTQSPSSLSASVGDRVTITCRASQGISSWLAWYQQKPGKAPKLLIYAASSLQSGVPSRFSGSGSGTDFTLTISSLQPEDFATYYCQQANSFPPTFGPGTKVDIKR", "notes": "Printed entries run through CL and CH1 (Fab chains); Label E5 tied to PFE5 by inference"}},
  "note": "Changes are numbered by the printed parent chain.",
  "data": [
    {"target": "T1, human HER-2 protein (soluble / recombinant, used in SPR) (human, UniProt P04626 23-652)", "T1 construct": "also called immobilized HER2 protein; recombinant HER-2", "test": "SPR, immobilized HER2 protein", "units": {"koff": "s⁻¹"}, "values": [
      {"binder": "B1", "koff": 0.00324},
      {"binder": "B2", "koff": 0.00063},
      {"binder": "B3", "koff": 0.00415},
      {"binder": "B4", "koff": 0.0342},
      {"binder": "B5", "koff": 0.00416},
      {"binder": "B6", "koff": 0.00218},
      {"binder": "B7", "koff": 0.00486},
      {"binder": "B8", "koff": 0.0047},
      {"binder": "B9", "koff": 0.000324},
      {"binder": "B10", "koff": 0.0187},
      {"binder": "B11", "koff": 0.000499},
      {"binder": "B12", "koff": 0.00448},
      {"binder": "B13", "koff": 0.00502},
      {"binder": "B14", "koff": 0.0272},
      {"binder": "B15", "koff": 0.00181},
      {"binder": "B16", "koff": 0.0714},
      {"binder": "B17", "koff": 0.00152}
    ]}
  ]
}
